Source: the supplement of paper PMC9112550, “Optimization of the antimicrobial peptide Bac7 by deep mutational scanning” (BMC Biology, 2022)

Tested on: Escherichia coli TOP10
Test: shrunken log2 fold change of peptide-encoding DNA abundance (4.5 h post-induction vs induction); higher = less antimicrobial activity (less host growth inhibition)
Conditions: time post-induction: 4.5 h; library: site-saturation at positions 5, 18, 19, 20
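Further: peptides expressed intracellularly from a pBAD plasmid library in pooled LB shake-flask culture, induced with 0.3% L-arabinose, DNA abundance read by NGS, three biological replicates, DESeq2 with apeglm shrinkage.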

| Sequence | shrunken log2 fold change |
| --- | --- |
| RRIRDRPPRLPRPRPRPFWDPRP | 0.148 |
| RRIRARPPRLPRPRPRPMCIPRP | 0.143 |
| RRIRNRPPRLPRPRPRPFMNPRP | -0.195 |
| RRIRDRPPRLPRPRPRPFFVPRP | 0.0823 |
| RRIRERPPRLPRPRPRPPMFPRP | -0.203 |
| RRIRVRPPRLPRPRPRPFCDPRP | -0.218 |
| RRIRNRPPRLPRPRPRPQITPRP | -1.07 |
| RRIRCRPPRLPRPRPRPHMFPRP | -0.348 |
| RRIRLRPPRLPRPRPRPRNCPRP | -0.51 |
| RRIRKRPPRLPRPRPRPVCYPRP | 0.242 |
| RRIRSRPPRLPRPRPRPESEPRP | 0.0793 |
| RRIRRRPPRLPRPRPRPYGHPRP | -0.198 |
| RRIRPRPPRLPRPRPRPMHKPRP | 0.0775 |
| RRIRPRPPRLPRPRPRPTVCPRP | 0.149 |
| RRIRPRPPRLPRPRPRPSGMPRP | -0.183 |
| RRIRARPPRLPRPRPRPIWDPRP | 0.264 |
| RRIRPRPPRLPRPRPRPNHGPRP | -0.0975 |
| RRIRYRPPRLPRPRPRPPYQPRP | -0.369 |
| RRIRIRPPRLPRPRPRPRIKPRP | -0.466 |
| RRIRKRPPRLPRPRPRPRRGPRP | 0.799 |
| RRIRYRPPRLPRPRPRPNCDPRP | -0.504 |
| RRIRPRPPRLPRPRPRPFFCPRP | 0.0262 |
| RRIRMRPPRLPRPRPRPQRSPRP | 0.629 |
| RRIRNRPPRLPRPRPRPGLMPRP | 0.235 |
| RRIRSRPPRLPRPRPRPEVTPRP | 0.501 |

| Sequence | shrunken log2 fold change |
| --- | --- |
| RRIRQRPPRLPRPRPRPLRYPRP | -0.0738 |
| RRIRDRPPRLPRPRPRPKEPPRP | 0.00859 |
| RRIRNRPPRLPRPRPRPDRSPRP | -0.043 |
| RRIRQRPPRLPRPRPRPLACPRP | -0.231 |
| RRIRIRPPRLPRPRPRPGEIPRP | -0.123 |
| RRIRNRPPRLPRPRPRPTGEPRP | 0.394 |
| RRIRMRPPRLPRPRPRPYLCPRP | -0.165 |
| RRIRSRPPRLPRPRPRPMWSPRP | 0.284 |
| RRIRMRPPRLPRPRPRPWSFPRP | -0.33 |
| RRIRPRPPRLPRPRPRPFHIPRP | -0.161 |
| RRIRFRPPRLPRPRPRPKLFPRP | -0.0554 |
| RRIRKRPPRLPRPRPRPKEFPRP | 0.232 |
| RRIRTRPPRLPRPRPRPLESPRP | -0.0663 |
| RRIRVRPPRLPRPRPRPSFVPRP | -0.422 |
| RRIRKRPPRLPRPRPRPHPWPRP | 0.353 |
| RRIRTRPPRLPRPRPRPPSHPRP | -0.143 |
| RRIRGRPPRLPRPRPRPMPAPRP | 1.29 |
| RRIRQRPPRLPRPRPRPPWEPRP | -0.0075 |
| RRIRFRPPRLPRPRPRPKLCPRP | -0.14 |
| RRIRMRPPRLPRPRPRPRPKPRP | 1.07 |
| RRIRHRPPRLPRPRPRPRFFPRP | 0.152 |
| RRIRLRPPRLPRPRPRPHTWPRP | -0.202 |
| RRIRQRPPRLPRPRPRPPYMPRP | -0.184 |
| RRIRSRPPRLPRPRPRPDIKPRP | -0.336 |
| RRIRNRPPRLPRPRPRPSQYPRP | -0.268 |

| Sequence | shrunken log2 fold change |
| --- | --- |
| RRIRFRPPRLPRPRPRPRWEPRP | 0.025 |
| RRIRARPPRLPRPRPRPGSWPRP | 0.759 |
| RRIRFRPPRLPRPRPRPRSLPRP | 0.0152 |
| RRIRVRPPRLPRPRPRPYDGPRP | -0.00822 |
| RRIRPRPPRLPRPRPRPMFDPRP | -0.231 |
| RRIRQRPPRLPRPRPRPGPLPRP | -0.035 |
| RRIRARPPRLPRPRPRPGRMPRP | 0.237 |
| RRIRFRPPRLPRPRPRPNDMPRP | -0.388 |
| RRIRRRPPRLPRPRPRPPWQPRP | 2.01 |
| RRIRDRPPRLPRPRPRPYRTPRP | -0.0206 |
| RRIRGRPPRLPRPRPRPWEVPRP | 0.0273 |
| RRIRYRPPRLPRPRPRPYVDPRP | -0.0075 |
| RRIRLRPPRLPRPRPRPNDKPRP | -0.962 |
| RRIRGRPPRLPRPRPRPMWHPRP | 0.441 |
| RRIRQRPPRLPRPRPRPRNCPRP | 5 |
| RRIRRRPPRLPRPRPRPTAYPRP | 0.676 |
| RRIRLRPPRLPRPRPRPPFQPRP | 0.0582 |
| RRIRWRPPRLPRPRPRPPMGPRP | 0.362 |
| RRIRYRPPRLPRPRPRPNFDPRP | -0.565 |
| RRIRMRPPRLPRPRPRPNPMPRP | 0.568 |
| RRIRTRPPRLPRPRPRPDLGPRP | -0.117 |
| RRIRTRPPRLPRPRPRPQSDPRP | -0.0398 |
| RRIRNRPPRLPRPRPRPLIWPRP | 0.0774 |
| RRIRERPPRLPRPRPRPQTMPRP | -0.157 |
| RRIRWRPPRLPRPRPRPNWNPRP | -0.0303 |

| Sequence | shrunken log2 fold change |
| --- | --- |
| RRIRIRPPRLPRPRPRPGTQPRP | -0.0235 |
| RRIRTRPPRLPRPRPRPKPHPRP | 0.0899 |
| RRIRQRPPRLPRPRPRPHSKPRP | -0.328 |
| RRIRPRPPRLPRPRPRPRDHPRP | 0.279 |
| RRIRDRPPRLPRPRPRPWFCPRP | -0.272 |
| RRIRFRPPRLPRPRPRPAFQPRP | 0.243 |
| RRIRERPPRLPRPRPRPEAHPRP | 0.201 |
| RRIRVRPPRLPRPRPRPMMNPRP | -0.28 |
| RRIRNRPPRLPRPRPRPFHKPRP | -0.107 |
| RRIRDRPPRLPRPRPRPFACPRP | 0.107 |
| RRIRCRPPRLPRPRPRPYWNPRP | -0.629 |
| RRIRFRPPRLPRPRPRPWEKPRP | -0.0348 |
| RRIRMRPPRLPRPRPRPTAFPRP | 0.206 |
| RRIRARPPRLPRPRPRPLFCPRP | 0.00332 |
| RRIRHRPPRLPRPRPRPPIDPRP | 0.065 |
| RRIRNRPPRLPRPRPRPCVRPRP | -0.109 |
| RRIRVRPPRLPRPRPRPEGLPRP | 0.0931 |
| RRIRPRPPRLPRPRPRPILKPRP | -0.14 |
| RRIRIRPPRLPRPRPRPYTIPRP | -0.605 |
| RRIRHRPPRLPRPRPRPNSTPRP | -1.48 |
| RRIRARPPRLPRPRPRPSRWPRP | 0.388 |
| RRIRWRPPRLPRPRPRPKEDPRP | 0.0809 |
| RRIRVRPPRLPRPRPRPINPPRP | -0.327 |
| RRIRWRPPRLPRPRPRPPTMPRP | 0.264 |
| RRIRIRPPRLPRPRPRPAAFPRP | -0.234 |

| Sequence | shrunken log2 fold change |
| --- | --- |
| RRIRVRPPRLPRPRPRPIWFPRP | -0.0241 |
| RRIRFRPPRLPRPRPRPYGLPRP | -0.521 |
| RRIRMRPPRLPRPRPRPVWRPRP | 0.947 |
| RRIRARPPRLPRPRPRPLMDPRP | 0.634 |
| RRIRRRPPRLPRPRPRPQTWPRP | 0.345 |
| RRIRDRPPRLPRPRPRPYSMPRP | -0.0516 |
| RRIRFRPPRLPRPRPRPPLMPRP | 0.154 |
| RRIRGRPPRLPRPRPRPLNWPRP | 0.0909 |
| RRIRIRPPRLPRPRPRPFQIPRP | 0.0698 |
| RRIRLRPPRLPRPRPRPDFVPRP | -0.108 |
| RRIRCRPPRLPRPRPRPWASPRP | 0.0212 |
| RRIRCRPPRLPRPRPRPDFPPRP | 0.137 |
| RRIRDRPPRLPRPRPRPSDKPRP | 0.0657 |
| RRIRNRPPRLPRPRPRPYGVPRP | -0.00804 |
| RRIRWRPPRLPRPRPRPNPTPRP | -0.0571 |
| RRIRTRPPRLPRPRPRPDLCPRP | 0.144 |
| RRIRQRPPRLPRPRPRPISWPRP | -0.12 |
| RRIRERPPRLPRPRPRPYMDPRP | -0.534 |
| RRIRWRPPRLPRPRPRPRQKPRP | 0.0761 |
| RRIRYRPPRLPRPRPRPVTQPRP | 3.05 |
| RRIRNRPPRLPRPRPRPGQKPRP | -0.000842 |
| RRIRCRPPRLPRPRPRPQSPPRP | -0.0224 |
| RRIRGRPPRLPRPRPRPQPSPRP | 0.65 |
| RRIRHRPPRLPRPRPRPRNMPRP | -0.65 |
| RRIRVRPPRLPRPRPRPQYFPRP | -0.19 |
